Test results taken from FireProtDB (doi:10.1021/bi052621g).
Several values for one entry are separate records, joined by “and”; a condition that tells them apart may be missing. Identical values can stand only once.

Conditions: Sus scrofa, pH 7, Thermal, Hepes 20 mM, reversible: No, whole UniProt chain shown

B1: Major seminal plasma glycoprotein PSP-I wild type, P35495 (protein)
chain: MKLGSAIPWALLFSTATLISTGWGLDYHACGGRLTDDYGTIFTYKGPKTECVWTLQVDPKYKLLVSIPTLNLTCGKEYVEILEGAPGSKSLGKFCEGLSILNRGSSGMTVKYKRDSGHPASPYEIIFLRDSQG
DSC, ZnCl2 5 mM
  Tm: 51.1 °C
  unfolding enthalpy (calorimetric): 17.4 kcal/mol
DSC
  unfolding enthalpy (calorimetric): 18.4 kcal/mol and 20.8 kcal/mol

B2: Major seminal plasma glycoprotein PSP-II wild type, P35496 (protein)
chain: MKLGTAIPWALLLSTATLVSTARINGPDECGRVIKDTSGSISNTDRQKNLCTWTILMKPDQKVRMAIPYLNLACGKEYVEVFDGLLSGPSYGKLCAGAAIVFLSTANTMTIKYNRISGNSSSPFLIYFYGSSPGSEY
CD
  Tm: 52.6 °C
